Source: the supplement of paper PMC10567573

B1: ALDH8A1 (parent)
chain: FTGSQPTAERITQLSAPHCKKLSL

Variants of: B1
Test: protein stability index of a GFP-peptide fusion (GPS, HEK-293T) (PSI 1-6); higher = more stable
Details: c terminus: a fixed tail appended
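Further: lentivirally expressed fusions sorted by FACS into six bins by GFP to DsRed ratio, PSI derived from sequencing read proportions per bin multiplied by bin number.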

Variant	protein stability index
FTGSQPTAERITQLSAPHCKDLSL [K21D]	2.89
FTGSQPTAERITQLSAPHCKFLSL [K21F]	1.9
FTGSQPTAERITQLSAPHCKWLSL [K21W]	1.71
FTGSQPTAERITQLSAPHCKILSL [K21I]	1.71
FTGSQPTAERITQLSAPHCKSLSL [K21S]	2.22
FTGSQPTAERITQLSAPHCKELSL [K21E]	2.65
FTGSQPTAERITQLSAPHCKALSL [K21A]	2.56
FTGSQPTAERITQLSAPHCKGLSL [K21G]	2.01
FTGSQPTAERITQLSAPHCKTLSL [K21T]	2.06
FTGSQPTAERITQLSAPHCKQLSL [K21Q]	2.23
FTGSQPTAERITQLSAPHCKNLSL [K21N]	2.05
FTGSQPTAERITQLSAPHCKYLSL [K21Y]	2.1
FTGSQPTAERITQLSAPHCKHLSL [K21H]	2.1
FTGSQPTAERITQLSAPHCKVLSL [K21V]	2.22
FTGSQPTAERITQLSAPHCKLLSL [K21L]	1.84
FTGSQPTAERITQLSAPHCKPLSL [K21P]	2.32
FTGSQPTAERITQLSAPHCKCLSL [K21C]	1.59
FTGSQPTAERITQLSAPHCKMLSL [K21M]	2.45
FTGSQPTAERITQLSAPHCKRLSL [K21R]	2.41
FTGSQPTAERITQLSAPHCKKASL [L22A]	2.85
FTGSQPTAERITQLSAPHCKKPSL [L22P]	2.26
FTGSQPTAERITQLSAPHCKKNSL [L22N]	2.54
FTGSQPTAERITQLSAPHCKKGSL [L22G]	2.88
FTGSQPTAERITQLSAPHCKKQSL [L22Q]	2.68

Variant	protein stability index
FTGSQPTAERITQLSAPHCKKCSL [L22C]	2.27
FTGSQPTAERITQLSAPHCKKTSL [L22T]	2.61
FTGSQPTAERITQLSAPHCKKKSL [L22K]	2.68
FTGSQPTAERITQLSAPHCKKSSL [L22S]	2.61
FTGSQPTAERITQLSAPHCKKMSL [L22M]	2.14
FTGSQPTAERITQLSAPHCKKESL [L22E]	3.46
FTGSQPTAERITQLSAPHCKKYSL [L22Y]	2.68
FTGSQPTAERITQLSAPHCKKHSL [L22H]	2.29
FTGSQPTAERITQLSAPHCKKRSL [L22R]	2.23
FTGSQPTAERITQLSAPHCKKFSL [L22F]	1.92
FTGSQPTAERITQLSAPHCKKVSL [L22V]	1.91
FTGSQPTAERITQLSAPHCKKISL [L22I]	2.76
FTGSQPTAERITQLSAPHCKKDSL [L22D]	2.67
FTGSQPTAERITQLSAPHCKKWSL [L22W]	2.19
FTGSQPTAERITQLSAPHCKKLYL [S23Y]	2.66
FTGSQPTAERITQLSAPHCKKLQL [S23Q]	2.35
FTGSQPTAERITQLSAPHCKKLHL [S23H]	2.02
FTGSQPTAERITQLSAPHCKKLML [S23M]	2.27
FTGSQPTAERITQLSAPHCKKLVL [S23V]	1.93
FTGSQPTAERITQLSAPHCKKLCL [S23C]	1.78
FTGSQPTAERITQLSAPHCKKLFL [S23F]	2.27
FTGSQPTAERITQLSAPHCKKLNL [S23N]	2.39
FTGSQPTAERITQLSAPHCKKLPL [S23P]	2.33
FTGSQPTAERITQLSAPHCKKLDL [S23D]	2.69

Variant	protein stability index
FTGSQPTAERITQLSAPHCKKLAL [S23A]	2.4
FTGSQPTAERITQLSAPHCKKLLL [S23L]	1.81
FTGSQPTAERITQLSAPHCKKLRL [S23R]	1.79
FTGSQPTAERITQLSAPHCKKLGL [S23G]	1.97
FTGSQPTAERITQLSAPHCKKLKL [S23K]	2.03
FTGSQPTAERITQLSAPHCKKLWL [S23W]	1.85
FTGSQPTAERITQLSAPHCKKLTL [S23T]	1.88
FTGSQPTAERITQLSAPHCKKLEL [S23E]	2.56
FTGSQPTAERITQLSAPHCKKLIL [S23I]	2.15
FTGSQPTAERITQLSAPHCLKLSL [K20L]	1.84
FTGSQPTAERITQLSAPHCMKLSL [K20M]	1.84
FTGSQPTAERITQLSAPHCRKLSL [K20R]	1.78
FTGSQPTAERITQLSAPHCSKLSL [K20S]	2.26
FTGSQPTAERITQLSAPHCIKLSL [K20I]	1.61
FTGSQPTAERITQLSAPHCNKLSL [K20N]	2.53
FTGSQPTAERITQLSAPHCVKLSL [K20V]	1.93
FTGSQPTAERITQLSAPHCDKLSL [K20D]	2.57
FTGSQPTAERITQLSAPHCFKLSL [K20F]	1.52
FTGSQPTAERITQLSAPHCPKLSL [K20P]	2.3
FTGSQPTAERITQLSAPHCTKLSL [K20T]	2.19
FTGSQPTAERITQLSAPHCEKLSL [K20E]	2.75
FTGSQPTAERITQLSAPHCCKLSL [K20C]	2.09
FTGSQPTAERITQLSAPHCAKLSL [K20A]	2.2
FTGSQPTAERITQLSAPHCQKLSL [K20Q]	2.8

Variant	protein stability index
FTGSQPTAERITQLSAPHCWKLSL [K20W]	1.61
FTGSQPTAERITQLSAPHCYKLSL [K20Y]	2.5
FTGSQPTAERITQLSAPHCHKLSL [K20H]	1.88
FTGSQPTAERITQLSAPHCGKLSL [K20G]	2.85
FTGSQPTAERITQLSAPHCKKLST [L24T]	2.56
FTGSQPTAERITQLSAPHCKKLSM [L24M]	2.46
FTGSQPTAERITQLSAPHCKKLSP [L24P]	2.9
FTGSQPTAERITQLSAPHCKKLSS [L24S]	2.95
FTGSQPTAERITQLSAPHCKKLSG [L24G]	2.67
FTGSQPTAERITQLSAPHCKKLSI [L24I]	2.04
FTGSQPTAERITQLSAPHCKKLSQ [L24Q]	2.9
FTGSQPTAERITQLSAPHCKKLSF [L24F]	1.97
FTGSQPTAERITQLSAPHCKKLSN [L24N]	2.97
FTGSQPTAERITQLSAPHCKKLSR [L24R]	2.52
FTGSQPTAERITQLSAPHCKKLSK [L24K]	2.5
FTGSQPTAERITQLSAPHCKKLSE [L24E]	2.96
FTGSQPTAERITQLSAPHCKKLSD [L24D]	3.23
FTGSQPTAERITQLSAPHCKKLSC [L24C]	2.52
FTGSQPTAERITQLSAPHCKKLSH [L24H]	2.52
FTGSQPTAERITQLSAPHCKKLSA [L24A]	2.6
FTGSQPTAERITQLSAPHYKKLSL [C19Y]	1.68
FTGSQPTAERITQLSAPHWKKLSL [C19W]	1.6
